Measured values: the DeepSol protein solubility set

Experiment: soluble on expression in E. coli; label from the status in PepcDB or PDB records

Sequence	soluble on expression in E. coli
MKWLRLQDLPTDNSFAALPAEFYTRLQPRPPAAPRLLHANAEAAALIGLDPAEFSTQAFLDVFSGHAPLPGGDTLAAVYSGHQFGVWAGQLGEVRGPAGGWELQLKGAGMTPYSRMGDGRAVLRSSVREYLASEAMHGLGIPTTRSLALVVSDDPVMRETVETAAVVTRMAPSFVRFGSFEHWSARRQPEQLRVLADYVIDRFYPECRVAGAGRLDGEHGEILGLLAAVTRRTALLMADWQAVGFCHGVMNTDNMSILGLTLDYGPYGFMDTFQLGHICNHSDSEGRYAWNRQPSVGLWNLYRLASSLHTLAPDPEALRAVLDGYEAVFTQAFHGRMAGKLGLPQFLPEDETLLDDLLQLMHQQGADFTLAFRRLGEAVRGQRQPFEDSFIDRAAAGAWYDRLAARHASDGRAAQARAAAMDEVNPLYVLRNHLAEQAIRAAARGDAGEIDILLKLLRNPYKHQPGYDAYAGLAPDWAAGLEVSCSSLEHHHHHH	not soluble
MFALHRHFPNPLPSNPSISRHEQKVADHLASIIKESYYGDTSVEESEYLVQEEYGDWEPEVFEPYDCVLPDQDDVLFGEKAVSREELDKAITFYRSGKIGSRPITTMHHSYRWIRTDAHMNKLRKYEKDKKAFQENVRVRLAQLTQRLYEEVKEKLDNGVNLHDSDLMAMALEINTREMKLQNFKASQSWITRWKQSHRIVSRRVTKFVTRKCLINKDAIKKNADDFVKNARTEISNYHPSMVFNCDQTGIQKELYPARSLAFMGEKTVERLAQSKSSLTHSFTFLPMIFLDGSMGPKAFMVIAEPKGQFPPSRPIPNCPNLEVRAGYKTHIMTKQLMCDFFESCVFIPSVPKKLYIMLDSWPAFKDHTTIKNLVPNGHDVVIRNIPEHTTGMIQPLDVYWNAPWKSLIKKFTAYALRTQTDYVIAQRNNAICMVSVLYHQISAEHFRPFLQHCWKKAGYVGAANTSSTPFLTPAQYCIDHGDTVICYHTGCNHLGFIRCARCKIFPARTGKNFSHILIVENVSFPIQYFFLNIAPFILVIP	not soluble
MTGWGDHDSLYINPYENRNKLRTYSEYFPIVEVDSSFYAMQPARNYTKWAMETPKDFSFIVKAYQGMTGHMKGEIPFSTFDEMFDVYKQSILPLIEAGKLKTILFQYPPWFDCKKKNVDFLRYTKEKMEGLPCAIEFRNQTWFYPEMRDRTLQFLEQEKWIHTICDEPQAGIGSVPLVLEVTNSDMALIRFHGRNVHGWLDKGENWRAVRCLYRYNNKELEEWVERLEQLKKKTKDIYVLFNNNSGGDAADNAKQLMKMMNITYGEPKPEQLNFFE	not soluble
MKKFLTQVFTWWNGQTLGTRFHTWRKGERVGEDEFGNVYYQGGKDSEGRTRRWVIFNGYSEASTIPPGWHGWMHHRVDTPPSKEDYRPREWQKPHLQNLTGSPLAYRPKGSIALPGAQPAERPRVTGEYDAWTPGNLEHHHHHH	not soluble
MASLEVSRSPRRSRRELEVRSPRQNKYSVLLPTYNERENLPLIVWLLVKSFSESGINYEIIIIDDGSPDGTRDVAEQLEKIYGSDRILLRPREKKLGLGTAYIHGMKHATGNYIIIMDADLSHHPKFIPEFIRKQKEGNFDIVSGTRYKGNGGVYGWDLKRKIISRGANFLTQILLRPGASDLTGSFRLYRKEVLEKLIEKCVSKGYVFQMEMIVRARQLNYTIGEVPISFVDRVYGESKLGGNEIVSFLKGLLTLFATT	not soluble
MGHHHHHHSHVVAILGMGWGAGTGLEMPSAASRGASLLNMQSLGLWTWDCLQGHWAPLIHLNSGPPSGAMERSPTWGEAAELWGSHILLPFRIRHKQTLFASLK	not soluble
AGHMTSILSRNHVKVKGSGKASIMFAPGFGCDQSVWNAVAPAFEEDHRVILFDYVGSGHSDLRAYDLNRYQTLDGYAQDVLDVCEALDLKETVFVGHSVGALIGMLASIRRPELFSHLVMVGPSPCYLNDPPEYYGGFEEEQLLGLLEMMEKNYIGWATVFAATVLNQPDRPEIKEELESRFCSTDPVIARQFAKAAFFSDHREDLSKVTVPSLILQCADDIIAPATVGKYMHQHLPYSSLKQMEARGHCPHMSHPDETIQLIGDYLKAHV	soluble
MAMLAYQVSKSIEINKSQSEIIDYLKDFKNWPEWSPWIILEPSCELTYSDNQGHVGAGYQWNGQRIGTGAVVLESTQEHRLDMELHFFRPIKSHGKVTLIVTPSQDGCTVEWQMQSRVPWYLFFLKTMFKSMVEMDYDRGLKMLKSQLETGQILSQLSEIGTRHQDLIHYVGLQGSGTIPELGPIMKKQTQRLYELMQKESLPVSGELFCYYLSMDMKLGHFEFVTCLPVSEMVEVPNGFVFGTIPACETFVIEHKGDYQFLGNAWSLGMNLTRQNGIKVKSKPLGIERYLNNPNETPKAGLRTEVILFKKLEHHHHHH	soluble
MAHHHHHHMGTLEAQTQGPGSMRRVVVTGMGIVSSIGSNTEEVTASLREAKSGISRAEEYAELGFRCQVHGAPDIDIESLVDRRAMRFHGRGTAWNHIAMDQAIADAGLTEEEVSNERTGIIMGSGGPSTRTIVDSADITREKGPKRVGPFAVPKAMSSTASATLATFFKIKGINYSISSACATSNHCIGNAYEMIQYGKQDRMFAGGCEDLDWTLSVLFDAMGAMSSKYNDTPSTASRAYDKNRDGFVIAGGAGVLVLEDLETALARGAKIYGEIVGYGATSDGYDMVAPSGEGAIRCMKMALSTVTSKIDYINPHATSTPAGDAPEIEAIRQIFGAGDVCPPIAATKSLTGHSLGATGVQEAIYSLLMMQNNFICESAHIEELDPAFADMPIVRKRIDNVQLNTVLSNSFGFGGTNATLVFQRYQG	soluble
MNIAKLIDHTILKANTTKEDVMKVIEEAKEYKFASVCINPTWVKLAAEELAGHDVDVCTVIGFPLGASTTETKAFETKDAIAKGATEVDMVINVGALKDGDNELVEKDIYEVVQAAKGKALVKVIIETCLLTDEEKVRACELSVKAGADFVKTSTGFSTGGATAEDIALMRKTVGPNVGVKASGGVRTREDAEKMVAAGASRVGASASVAIVLNDAKGATDNY	not soluble
MGRDRISELPDGLLNHILMYLHIEESIRTSVLSSRWRKLWLKVPGLDVNVHDFPADGNLFESLMDKFLEVNRGRLQNFKLNYESNLYYLMDRFVPWIATVVDRGIQHLDVTATDCPPWTIDFMPANICKSKTLVSLKLVNVGLDTPKFVVSLPCLKIMHLEDIFYSPLIAENLISGCPVLEDLTIVRNHEDFLNFLRVMSQTLKNFRLTFDWGMGSNDFSVEIDAPGLKYMSFRDSQSDRIVVKNLSSLVKIDLDTEFNLKFGLGSPLEPEDLTKRDIIRDFLTGISSVKHMIISHPTLEVLYRYSKIGQLPKFHNLYHLQAVFSSSLLQLLPAFLEICPNLKNLILDYSISAEPEQIDFTNLPRCLISTLEYVEIKQLTMREESGIKLVKYFLENSAVLKKLTLSFIDSPMTNQESEIYMQLLTSTKRSRGCHVLIL	soluble
MGSDKIHHHHHHMALEVVLWDFDGVIFDSMHLKNEGFRALFQKHGNKNQESLKQFEVYHYQSGGISRNEKIQYFYNEILKTPIAQEEVDALALEFGTIIEQKLFDREHLNSEVMAFIDKHYKNHVFHIASAALHSELQVLCEFLGIIKYFKSVEGSPPNKPKIIANIIQKYAYNPGRMLMIGDSVNDYESAQANEVAFLGYNSKVLKNLVGQNGYQGKYLESFKGFDLQNFIKE	not soluble
MTYSHEVEHMCVVKKGPNHGPAPIPEEGKWVKSKEIVDISGLTHGIGWCAPQQGACKLTLNVKEGVIQEALVETIGCSGMTHSAAMAAEILPGKTILEALNTDLVCDAINTAMRELFLQIVYGRTQSAFSEGGLIIGAGLEDLGKGLRSQVGTLYGTLAKGPRYLEMAEGYIKNIFLDKNDEICGYEFVHMGKFMDEIKKGTDANEALKKVTGTYGRVTAEQGAVKHIDPRHE	not soluble
MAHHHHHHMRERKPIRKMKRSRVSDQIIRVEEPDAEEGEASPAKATPVPHFSDRRICINVGGEYITTLASTLCSEPSKFSEWVENNFQGLPRDSMGNPFIDRDPENFRQIISYLRGYELPTATEKIVFLAEDAEYYHIDRLLALINPPAEWRFVSGPGVSSSRKEFSTENILATCGNEPLPQVGKSVFLLRIDKCELVSIGLVGTESPDHDEPLERQTNAIAYRSTGELIRSLNSSSTFFSGNGYKGRDTVMVQVLFKPEGAAQIEFFCNDVKTHETEWLSPVPPLRFAVSLHGVSAVVIERCVAGVKDEDM	not soluble
MSLEEVLKDIERDKEEKKKEIADAASRETAKIEKEREEKIQILQREYENRMREEGSRLYNSIIDKANVEARNIVRMRVQEILDQYGAKADELIKNLAKTKEYDDVLKKMIEVSRKALGPDCIVKVNTADKGRISDGNIKFEDIDPYGGVLATSRDGKIELDLRISSIRRDILERFKVRLYSMIED	not soluble
MGSDKIHHHHHHMLFANSLENQLQQWNEVISKQPNNPNAYIRRGMVQFQLAKIEESIDDFDTAEKLDNRIKPYLWQRGLSYYYADRFAEGAQQFEIDLTVNSQDVEETVWRYLCMARLVGVTEARNNLLTVKNDPRLIMRSVYDLFAGHCTPDNVFNIGQTEGNKGKFYSHLYLGLYYEAENNLPLAQEYIVKAADKYKLDDYMWYLAQVHKKLRGWM	not soluble
MSLAPRLKLRDITFFERPVQFARPFRFGAITMNATTQLFVRVEIEVEGRGSAVGASAELLVPKWFDKRPEFSPAQTVDGLRRSLEIARGLYLARTGFLTAFDLHAACIGAQIATCAKKNIPALAAAYGLAEIDKAILDALLRGVETGFFDGMAGNVAGIDARLSPDLKDAEIAAFLSSRKPLPRVAIRHTVGLDDTVEGKGGVADAHENAGASYFKLKLSGDPAADAARLARIGKELDTLGRSYKVTLDANEQYADLAALQALMDRLDHDSDLRPIASRLLYVEQPMPRDITRQSPLGSLAARGFIIDEADDSYDAFPAARALGYHGISSKSCKGLYKSIVSATRAAKWSGGGEKFFVTGEDLTCQAGLAVQQDLAMGAFLGVTHAERNGHHYVDGFGDTPAAEAAAFAAAHPDLYADAGQGIRLSIHDGDLLTGSLHAAGFATSVHPDWSALRPLEQPTSLQEQLAEGHHHHHH	not soluble
MDEYRELISVLPLETVEYAFAYGSGAIQQQNEDKSEKMVDFVIVTKNAQEFHRDNILKNPQHYSLLRLMGPKMIEKIQCNFAARVYYNTHVKVGKRKIKYGVISYENVKQDLLDWRWIYISGRLHKPVLEVIKPRQDMCDLVTENRRSALHSSLLLLPESFTLKQLFHKIVGLSYTGDFRMVVGEDKNKINKIVEGNYEELLRVYEPLMNDDARLSVMSPAKLIQDGSTTAIYHRLNLLPSEVLNRIQKNMNRVQKRQRDAEEVIFSLAHRHDVAATVETAIGGIIRPVSLSQTAKNAFSAGVTRSIIYSMAKMSKFLKSK	not soluble
MGSGILFVFAIGAIPSQAQDIGSTDRLNVENWQEWETVGEAQLTWFVFDIYRSRLKAPNGQYLVSTDVSPHPFALEINYQRDISKQQLLEVTDEQWQKLGFPKSNRQQWITQLSFIFPSIKNGDELTYVTDGDKGQIIYRQAGTKTQKMVGEITDERMNDAFLSIWLSPKTEFPKLRKQLIGQVRP	not soluble
MSLDNHNPKKSTTPNNEFHKKIATTGKIINLPKQSIVPAVSISVYNDMKTIVLTPMEFQLSSIGFQFQNLIIDLPHSTISTNCITFYYHQDHILIDLIDQNYLFITLKIAIDRFILGGQQLTLDNFEEWGYISVPYSFELRSSPFLLKCLDNLNLIVSLKDGGLLHFKRDEELGEINVFNFQEQGTLIPFLGFFGSGKQKDVVLDGVSSNSIVDALQIGGSGVVITLSVNKVLKLWNLDGHQNLSSLTIASDDNTWLPTIPSKYLKSYDQEDGKTIITLFINTKSGDSSKSMFVFKSFELESSNEGHHHHHH	not soluble
DVETCRDERCYRLWINSLGIDSYVNNVFEDVRNGWILLEVLDKVSPSSVNWKHASKPPIKMPFRKVENCNQVIKIGKQLKFSLVNVAGNDIVQGNKKLILGLLWQLMRFHMLQLLKSLRSEMTDADILSWANRKVRTMGRKLQIESFKDKSLSSGLFFLNLLWAVEPRVVNWNLVTKGETDDEKRLNATYIVSVARKLGCSVFLLPEDIVEVNQKMILILTASIMYWSLQR	soluble
